Data taken from patent US6949577B2, “Pharmaceuticals” (Pfizer, Inc., priority 2000, dated 2005).

Test system: thrombi in the left circumflex (LCX) coronary artery
Test: Lysis of coronary artery thrombi by TAFIa inhibitor in conjunction with t-PA
Type: in vivo, dogs
Text: The study was designed with 4 groups (8 dogs/group): • (i) aspirin pre-treatment/vehicle infusion; • (ii) no pre-treatment/vehicle infusion; • (iii) no pre-treatment/TAFIa inhibitor; and • (iv) aspirin pre-treatment/TAFIa inhibitor.
Thirty minutes after initiating vehicle or compound infusion a continuous electrical current was delivered to the lumen of the left circumflex (LCX) coronary artery to cause endothelial damage and stimulate the production of a thrombus. Thrombi were allowed to mature for 1 hour prior to attempting to lyse the thrombus and cause vessel reperfusion with t-PA. A total of 4 bolus injections of t-PA (each 0.45 mg/kg i.v.) were given sequentially at 15 minute intervals. Blood flow through the coronary artery was then monitored for a further 2 hours so as to assess vessel patency. Time to vessel occlusion, and reperfusion were measured and the quantity and quality of blood flow analysed post-vessel re-perfusion. In addition, the effect of treatment on surgical bleeding, activated clotting time, cutaneous bleeding and platelet aggregation was also assessed.

B1: tPA: recombinant tissue plasminogen activator (tPA), a profibrinolytic antithrombotic (protein, UniProt P00750 36-562, looked up)
Tissue-type plasminogen …: SYQVICRDEKTQMIYQQHQSWLRPVLRSNRVEYCWCNSGRAQCHSVPVKSCSEPRCFNGGTCQQALYFSDFVCQCPEGFAGKCCEIDTRATCYEDQGISYRGTWSTAESGAECTNWNSSALAQKPYSGRRPDAIRLGLGNHNYCRNPDRDSKPWCYVFKAGKYSSEFCSTPACSEGNSDCYFGNGSAYRGTHSLTESGASCLPWNSMILIGKVYTAQNPSAQALGLGKHNYCRNPDGDAKPWCHVLKNRRLTWEYCDVPSCSTCGLRQYSQPQFRIKGGLFADIASHPWQAAIFAKHRRSPGERFLCGGILISSCWILSAAHCFQERFPPHHLTVILGRTYRVVPGEEEQKFEVEKYIVHKEFDDDTYDNDIALLQLKSDSSRCAQESSVVRTVCLPPADLQLPDWTECELSGYGKHEALSPFYSERLKEAHVRLYPSSRCTSQHLLNRTVTDNMLCAGDTRSGGPQANLHDACQGDSGGPLVCLNDGRMTLVGIISWGLGCGQKDVPGVYTKVTNYLDWIRDNMRP
8 dogs/group, all groups received t-PA
  injured vessels patent at the end of the experiment: 2/8
dogs, t-PA 4 x 0.45 mg/kg i.v. boluses, comparison of treatment groups
  blood flow post-reperfusion (FIG. 1): superior to the combination of tPA and aspirin
